Measured values published in the supplement of paper PMC10065799, “High-throughput profiling of sequence recognition by tyrosine kinases and SH2 domains using bacterial peptide display” (eLife, 2023).

What was measured:
AncSZ = assay: phosphorylation enrichment, bacterial display (enrichment ratio); higher = better substrate or ligand; peptides without Tyr show the background
EPHB1 = EPHB1 (UniProt P54762); assay: as above
EPHB2 = EPHB2 (UniProt P29323); assay: as above
FGFR1 = FGFR1 (UniProt P11362); assay: as above
Sequence of FGFR1 (P11362 whole entry, looked up): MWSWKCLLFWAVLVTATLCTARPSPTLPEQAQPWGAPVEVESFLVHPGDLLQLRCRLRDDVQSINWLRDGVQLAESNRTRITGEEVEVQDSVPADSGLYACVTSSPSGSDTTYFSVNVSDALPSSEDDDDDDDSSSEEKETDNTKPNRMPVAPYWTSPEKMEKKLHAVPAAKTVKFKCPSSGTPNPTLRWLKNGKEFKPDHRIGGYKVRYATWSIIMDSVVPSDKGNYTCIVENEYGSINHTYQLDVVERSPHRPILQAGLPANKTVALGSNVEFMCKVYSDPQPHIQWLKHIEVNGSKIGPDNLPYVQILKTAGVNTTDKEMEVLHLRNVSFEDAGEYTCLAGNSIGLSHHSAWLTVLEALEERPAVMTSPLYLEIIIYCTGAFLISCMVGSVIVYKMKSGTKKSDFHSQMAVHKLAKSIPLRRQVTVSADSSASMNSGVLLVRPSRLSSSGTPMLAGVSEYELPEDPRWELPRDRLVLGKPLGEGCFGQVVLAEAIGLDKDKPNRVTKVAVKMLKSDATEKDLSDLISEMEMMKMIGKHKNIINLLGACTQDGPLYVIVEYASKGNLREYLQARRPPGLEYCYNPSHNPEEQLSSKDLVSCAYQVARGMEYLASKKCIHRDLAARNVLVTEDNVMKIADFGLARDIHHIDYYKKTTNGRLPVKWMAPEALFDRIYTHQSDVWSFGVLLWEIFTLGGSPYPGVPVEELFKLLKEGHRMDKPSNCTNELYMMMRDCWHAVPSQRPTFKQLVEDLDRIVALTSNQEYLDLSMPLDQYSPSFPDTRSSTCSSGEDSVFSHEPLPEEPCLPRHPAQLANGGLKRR

FGFR3 = FGFR3 (UniProt P22607); assay: as above
Sequence of FGFR3 (P22607 whole entry, looked up): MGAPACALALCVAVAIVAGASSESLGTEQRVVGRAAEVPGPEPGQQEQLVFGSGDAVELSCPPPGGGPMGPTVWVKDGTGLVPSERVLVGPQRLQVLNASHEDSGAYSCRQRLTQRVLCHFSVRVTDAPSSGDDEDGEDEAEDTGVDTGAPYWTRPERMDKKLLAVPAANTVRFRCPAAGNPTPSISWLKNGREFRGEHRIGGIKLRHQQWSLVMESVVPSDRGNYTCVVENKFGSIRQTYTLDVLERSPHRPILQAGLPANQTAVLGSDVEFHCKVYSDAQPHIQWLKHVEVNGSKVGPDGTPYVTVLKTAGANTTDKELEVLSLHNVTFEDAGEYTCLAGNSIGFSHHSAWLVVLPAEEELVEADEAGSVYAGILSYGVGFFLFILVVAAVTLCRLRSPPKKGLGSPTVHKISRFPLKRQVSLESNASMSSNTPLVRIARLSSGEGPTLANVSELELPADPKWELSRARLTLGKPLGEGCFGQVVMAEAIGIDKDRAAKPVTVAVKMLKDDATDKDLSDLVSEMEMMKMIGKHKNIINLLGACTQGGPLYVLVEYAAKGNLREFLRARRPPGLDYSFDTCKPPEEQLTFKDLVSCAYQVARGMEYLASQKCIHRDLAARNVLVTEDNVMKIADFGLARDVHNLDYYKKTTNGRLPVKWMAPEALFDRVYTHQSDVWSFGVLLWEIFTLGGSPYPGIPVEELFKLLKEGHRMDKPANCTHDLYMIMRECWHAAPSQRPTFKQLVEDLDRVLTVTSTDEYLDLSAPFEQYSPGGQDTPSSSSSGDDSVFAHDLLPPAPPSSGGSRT

Fer (mouse) = assay: as above
Fes = Fes (UniProt P07332); assay: as above
Sequence of Fes (P07332 whole entry, looked up): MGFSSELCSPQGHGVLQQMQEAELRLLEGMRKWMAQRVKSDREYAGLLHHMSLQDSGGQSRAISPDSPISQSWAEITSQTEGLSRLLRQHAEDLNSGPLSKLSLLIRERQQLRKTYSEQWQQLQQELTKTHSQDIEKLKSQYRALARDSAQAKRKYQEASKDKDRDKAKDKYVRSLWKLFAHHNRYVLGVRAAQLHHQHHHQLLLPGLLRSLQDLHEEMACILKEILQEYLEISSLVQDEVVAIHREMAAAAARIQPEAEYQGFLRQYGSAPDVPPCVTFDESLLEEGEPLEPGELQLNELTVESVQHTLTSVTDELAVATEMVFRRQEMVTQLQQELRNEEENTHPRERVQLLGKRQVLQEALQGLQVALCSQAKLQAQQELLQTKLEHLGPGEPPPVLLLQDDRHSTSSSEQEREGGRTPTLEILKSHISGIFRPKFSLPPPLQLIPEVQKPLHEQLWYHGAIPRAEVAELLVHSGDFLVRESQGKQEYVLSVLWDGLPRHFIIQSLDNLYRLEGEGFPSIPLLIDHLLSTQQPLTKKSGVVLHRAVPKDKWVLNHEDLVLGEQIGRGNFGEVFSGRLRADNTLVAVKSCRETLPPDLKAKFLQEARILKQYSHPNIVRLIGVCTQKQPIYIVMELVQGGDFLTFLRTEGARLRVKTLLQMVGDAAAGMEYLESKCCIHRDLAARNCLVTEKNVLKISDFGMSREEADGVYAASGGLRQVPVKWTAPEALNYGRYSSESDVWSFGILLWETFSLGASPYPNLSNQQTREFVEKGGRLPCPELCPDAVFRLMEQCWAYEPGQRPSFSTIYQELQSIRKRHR

Fyn = Fyn (UniProt P06241); assay: as above
Hck = Hck (UniProt P08631); assay: as above
Sequence of Hck (P08631 whole entry, looked up): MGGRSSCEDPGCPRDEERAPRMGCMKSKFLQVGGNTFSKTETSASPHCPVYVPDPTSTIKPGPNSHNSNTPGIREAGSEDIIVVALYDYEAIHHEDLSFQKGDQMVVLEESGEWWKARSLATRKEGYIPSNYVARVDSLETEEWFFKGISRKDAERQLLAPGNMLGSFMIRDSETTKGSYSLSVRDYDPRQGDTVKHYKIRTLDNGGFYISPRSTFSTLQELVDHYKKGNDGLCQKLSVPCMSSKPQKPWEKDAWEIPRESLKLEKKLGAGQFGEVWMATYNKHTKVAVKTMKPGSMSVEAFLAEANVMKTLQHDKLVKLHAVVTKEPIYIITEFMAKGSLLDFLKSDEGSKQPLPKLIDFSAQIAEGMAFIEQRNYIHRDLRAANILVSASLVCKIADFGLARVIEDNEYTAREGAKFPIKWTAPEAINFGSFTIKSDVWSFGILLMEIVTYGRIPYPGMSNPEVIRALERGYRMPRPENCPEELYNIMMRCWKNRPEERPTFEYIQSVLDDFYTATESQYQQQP

Jak2 = Jak2 (UniProt O60674); assay: as above
Sequence of Jak2 (O60674 whole entry, looked up): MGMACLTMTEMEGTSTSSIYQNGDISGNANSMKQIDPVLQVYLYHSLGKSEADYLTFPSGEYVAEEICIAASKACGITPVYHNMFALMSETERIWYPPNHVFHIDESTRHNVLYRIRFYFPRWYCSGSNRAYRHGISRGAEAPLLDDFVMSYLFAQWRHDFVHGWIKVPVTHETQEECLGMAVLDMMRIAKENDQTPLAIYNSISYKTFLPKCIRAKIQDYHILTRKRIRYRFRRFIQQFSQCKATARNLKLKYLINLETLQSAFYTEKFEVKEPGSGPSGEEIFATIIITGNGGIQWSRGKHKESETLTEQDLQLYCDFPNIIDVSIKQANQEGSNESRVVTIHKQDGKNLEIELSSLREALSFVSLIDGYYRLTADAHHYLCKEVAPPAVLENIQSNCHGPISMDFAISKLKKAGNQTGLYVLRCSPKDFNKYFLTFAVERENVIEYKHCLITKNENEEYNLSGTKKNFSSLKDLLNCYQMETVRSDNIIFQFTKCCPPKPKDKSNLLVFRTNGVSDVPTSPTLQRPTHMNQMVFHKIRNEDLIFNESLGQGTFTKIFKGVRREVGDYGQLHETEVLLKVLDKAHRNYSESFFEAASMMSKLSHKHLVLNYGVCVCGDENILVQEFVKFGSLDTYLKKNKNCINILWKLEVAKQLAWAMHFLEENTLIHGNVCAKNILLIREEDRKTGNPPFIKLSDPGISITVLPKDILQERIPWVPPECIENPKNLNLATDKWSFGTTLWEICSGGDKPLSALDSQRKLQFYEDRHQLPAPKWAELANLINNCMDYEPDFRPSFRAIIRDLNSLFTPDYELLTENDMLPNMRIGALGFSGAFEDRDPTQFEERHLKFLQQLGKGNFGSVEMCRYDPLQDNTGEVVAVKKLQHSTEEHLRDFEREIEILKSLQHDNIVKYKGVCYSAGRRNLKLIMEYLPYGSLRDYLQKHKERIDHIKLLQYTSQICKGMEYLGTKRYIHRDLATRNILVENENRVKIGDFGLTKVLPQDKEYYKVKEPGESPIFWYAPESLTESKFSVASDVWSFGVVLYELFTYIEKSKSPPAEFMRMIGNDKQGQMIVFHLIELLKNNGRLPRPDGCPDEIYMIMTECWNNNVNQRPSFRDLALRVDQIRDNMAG

MERTK = MERTK (UniProt Q12866); assay: as above
c-Abl (mouse) = assay: as above
c-Src = assay: as above
Grb2 SH2 = Grb2 SH2 (UniProt P62993); assay: SH2 binding enrichment of the phosphorylated peptide, bacterial display (enrichment ratio); higher = better substrate or ligand; peptides without Tyr show the background
SHP2-C SH2 = assay: as above
c-Src SH2 = assay: as above
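Throughout, for SH2 binding enrichment of the phosphorylated peptide, bacterial display: peptide library displayed on the E. coli surface as eCPX fusions, selected cells deep-sequenced, score is each peptide's frequency after selection divided by its frequency in the input.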
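Throughout, for phosphorylation enrichment, bacterial display: 11-residue human phosphosite peptides and single-mutation variants displayed on the E. coli surface, counted by deep sequencing, each peptide's frequency after selection divided by its frequency in the unselected input library; frequency after pTyr selection over input frequency; kinase dosed for 20-30% of maximal phosphorylation in three min.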

Sequence of EPHB1 (P54762 whole entry, looked up): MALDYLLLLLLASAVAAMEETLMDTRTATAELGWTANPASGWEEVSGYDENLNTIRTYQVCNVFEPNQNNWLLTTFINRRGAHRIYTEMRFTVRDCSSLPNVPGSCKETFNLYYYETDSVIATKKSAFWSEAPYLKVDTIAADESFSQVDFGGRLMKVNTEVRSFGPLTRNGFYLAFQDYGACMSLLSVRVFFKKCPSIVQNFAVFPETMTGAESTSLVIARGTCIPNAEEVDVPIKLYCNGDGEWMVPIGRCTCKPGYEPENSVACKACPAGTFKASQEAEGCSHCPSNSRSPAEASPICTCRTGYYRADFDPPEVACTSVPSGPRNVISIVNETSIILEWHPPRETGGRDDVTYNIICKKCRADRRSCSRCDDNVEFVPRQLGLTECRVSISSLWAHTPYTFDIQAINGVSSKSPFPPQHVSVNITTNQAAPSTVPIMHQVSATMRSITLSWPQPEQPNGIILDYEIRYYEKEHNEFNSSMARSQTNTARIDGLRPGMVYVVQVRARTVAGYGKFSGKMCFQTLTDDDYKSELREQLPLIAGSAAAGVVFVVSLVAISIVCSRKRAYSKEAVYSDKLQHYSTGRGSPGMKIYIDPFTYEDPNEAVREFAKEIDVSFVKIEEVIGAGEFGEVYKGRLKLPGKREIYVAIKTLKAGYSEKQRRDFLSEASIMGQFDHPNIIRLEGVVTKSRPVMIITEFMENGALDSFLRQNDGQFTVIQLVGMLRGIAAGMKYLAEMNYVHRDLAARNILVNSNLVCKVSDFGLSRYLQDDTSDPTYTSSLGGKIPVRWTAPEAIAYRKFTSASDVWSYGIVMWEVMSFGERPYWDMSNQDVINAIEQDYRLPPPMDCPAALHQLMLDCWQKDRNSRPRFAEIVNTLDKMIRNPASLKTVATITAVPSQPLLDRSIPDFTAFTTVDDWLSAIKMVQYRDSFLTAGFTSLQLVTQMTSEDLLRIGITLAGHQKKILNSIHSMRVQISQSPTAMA

Row | Sequence | phosphorylation enrichment (AncSZ) | phosphorylation enrichment (EPHB1) | phosphorylation enrichment (EPHB2) | phosphorylation enrichment (FGFR1) | phosphorylation enrichment (FGFR3) | phosphorylation enrichment (Fer (mouse)) | phosphorylation enrichment (Fes) | phosphorylation enrichment (Fyn) | phosphorylation enrichment (Hck) | phosphorylation enrichment (Jak2) | phosphorylation enrichment (MERTK) | phosphorylation enrichment (c-Abl (mouse)) | phosphorylation enrichment (c-Src) | SH2 binding enrichment (Grb2 SH2) | SH2 binding enrichment (SHP2-C SH2) | SH2 binding enrichment (c-Src SH2)
1 | NGRQCYSCRGN [PLAUR_Y217_K220R] | 0.375 | 0.261 | 0.319 | 0.356 | 0.31 | 0.274 | 0.461 | 0.299 | 0.35 | 0.39 | 0.346 | 0.374 | 0.294 | 1.03 | 0.769 | 1.31
2 | NGTVSYAIVAG [CDH23_Y1672_T1671S] | 0.778 | 0.661 | 0.575 | 0.496 | 0.593 | 0.448 | 0.961 | 0.638 | 0.479 | 0.703 | 0.792 | 0.591 | 0.456 | 0.873 | 46.5 | 3.88
3 | NHQFDYTFHWT [CSNK1A1_Y294_D297H_YF] | 1.49 | 1.55 | 1.3 | 3.83 | 2.26 | 5.97 | 1.08 | 0.507 | 0.47 | 1.09 | 0.573 | 0.803 | 0.996 | 1.09 | 1.05 | 0.523
4 | NHYKICNLCAE [PTEN_Y68_Y68C] | 0.663 | 0.376 | 0.395 | 0.488 | 0.519 | 0.384 | 0.691 | 0.4 | 0.378 | 0.613 | 0.45 | 0.571 | 0.372 | 1.12 | 0.956 | 0.97
5 | NHYKRYNLCAE [PTEN_Y68_I67R] | 0.74 | 0.467 | 0.516 | 0.557 | 0.554 | 0.488 | 0.82 | 0.512 | 0.542 | 0.744 | 0.446 | 0.709 | 0.508 | 0.93 | 0.769 | 0.662
6 | NIRKKYYRAIL [CHD7_Y1217_Q1214R] | 0.569 | 0.455 | 0.311 | 0.501 | 0.341 | 0.388 | 0.547 | 0.443 | 0.395 | 0.494 | 0.507 | 0.462 | 0.442 | 0.599 | 0.426 | 0.368
7 | NKKHHYRELPV [ERN2_Y860] | 1.04 | 0.855 | 0.773 | 0.826 | 2.45 | 1.22 | 1.97 | 0.669 | 1.01 | 2.67 | 0.795 | 2.31 | 0.996 | 1.62 | 1.48 | 1.41
8 | NNFGNYNNQSS [HNRNPA1_Y318_D314N] | 0.564 | 0.366 | 0.393 | 0.381 | 0.708 | 0.379 | 0.632 | 0.382 | 0.354 | 0.432 | 0.326 | 0.626 | 0.32 | 0.805 | 0.607 | 0.337
9 | NPQKPYFIRLF [WAS_Y83_S82P_YF] | 1.17 | 0.633 | 0.579 | 0.511 | 0.637 | 0.457 | 1 | 0.438 | 0.479 | 0.878 | 0.423 | 0.423 | 0.373 | 0.919 | 0.924 | 0.504
10 | NPQKSCFIRLF [WAS_Y83_Y83C_YF] | 1.06 | 0.606 | 0.578 | 0.583 | 0.704 | 0.47 | 1.18 | 0.459 | 0.526 | 0.974 | 0.467 | 0.848 | 0.453 | 0.862 | 0.817 | 0.631
11 | NQLNDYIFSFD [RARS1_Y516_R512Q] | 1.42 | 0.525 | 0.549 | 0.946 | 0.807 | 0.461 | 1.27 | 0.743 | 0.546 | 1.08 | 0.46 | 0.733 | 0.598 | 0.928 | 0.632 | 0.553
12 | NRLTDYYELLL [BBS10_Y536_P539L] | 1.64 | 2.44 | 1.66 | 11.9 | 10.1 | 1.98 | 1.17 | 1.1 | 1.46 | 1.68 | 3.04 | 1.15 | 1.69 | 1.19 | 0.83 | 1.16
13 | NTDETYCIDNK [TUBB3_Y200_E205K] | 1.23 | 0.721 | 0.577 | 0.53 | 0.783 | 0.729 | 1.34 | 0.781 | 0.592 | 1.37 | 0.407 | 0.834 | 0.976 | 0.96 | 0.955 | 0.572
14 | NTEGGYCCICA [CRELD1_Y328_R329C] | 1.02 | 0.497 | 0.657 | 0.562 | 0.668 | 0.583 | 0.966 | 0.512 | 0.911 | 0.878 | 0.673 | 0.894 | 0.529 | 0.704 | 0.693 | 0.632
15 | NTGDFYDLFGG [PTPN11_Y63_YF] | 1.23 | 0.587 | 0.632 | 0.582 | 0.709 | 1.82 | 1.06 | 4.89 | 3.44 | 0.985 | 2.97 | 0.773 | 4.45 | 1.14 | 0.628 | 0.615
16 | NTGNFYDLFGG [PTPN11_Y63_D61N_YF] | 0.844 | 0.436 | 0.548 | 0.537 | 0.641 | 3.08 | 0.955 | 6.58 | 4.7 | 0.796 | 7.84 | 0.766 | 4.88 | 1.19 | 0.833 | 0.887
